Laboratory results published in paper PMC12757075 (2026).

Molecular target: actin filament barbed end (Oryctolagus cuniculus, UniProt P68135)
Assay: pyrene-actin barbed-end elongation kinetic assay

Kd: ~1260 nM
B1: vinculin V1ab4 (protein)
chain: MPVFHTRTIESILEPVAQQISHLVIMHKEGEVHGKAIPDLTAPVAAVQAAVSNLVRVGKETVQTTEDQILKRDMPPAFIKVENACTKLVQAAQMLQSDPYSVPARDYLIHGSEGILSGTSDLLLTFDEAEVRKIIRVCKGILEYLTVAEVVETMEDLVTYTKNLGPGMTKMAKMIDERQQELTHQEHRVMLVNSMNTVKELLPVLISAMKIFVTTKNSKNQGIEEALKNRNFTVEKMSAEINEIIRVLQLTSWDEDAWASKDTEAMKRALASIDSKLNQAKGWLRDPSASPGDAGEQAIRQILDEAGKVGELCAGKERREILGTCKMLGQMTDQVADLRARGQGSSPVAMQKAQQVSQGLDVLTAKVENAARKLEAMTNSKQSIAKKIDAAQNWLADPNGGPEGEEQIRGALAEARKIAELCDDPKERDDILRSLGEISALTSKLADLRRQGKGDSPEARALAKQVATALQNLQTKTNRAVANSRPAKAAVHLEGKIEQAQRWIDNPTVDDRGVGQAAIRGLVAEGHRLANVMMGPYRQDLLAKCDRVDQLTAQLADLAARGEGESPQARALASQLQDSLKDLKARMQEAMTQEVSDVFSDTTTPIKLLAVAATAPPDAPNREEVFDERAANFENHSGKLGATAEKAAAVGTANKSTVEGIQASVKTARELTPQVVSAARILLRNPGNQAAYEHFETMKNQWIDNVEKMTGLVDEAIDTKSLLDASEEAIKKDLDKCKVAMANIQPQMLVAGATSIARRANRILLVAKREVEISKDPKFREAVKAASDELSKTISPMVMDAKAVAGNISDPGLQKSFLDSGYRILGAVAKVREAFQPQEPDFPPPPPDLEQLRLTDELAPPKPPLPEGEVPPPRPPPPEEKDEEFPEQKAGEVINQPMMMAARQLHDEARKWSSKPGIPAAEVGIGVVAEADAADAAGFPVPPDMEDDYEPELLLMPSNQPVNQPILAAAQSLHREATKWSSKGNDIIAAAKRMALLMAEMSRLVRGGSGTKRALIQCAKDIAKASDEVTRLAKEVAKQCTDKRIRTNLLQVCERIPTISTQLKILSTVKATMLGRTNISDEESEQATEMLVHNAQNLMQSVKETVREAEAASIKIRTDAGFTLRWVRKTPWYQ
